Laboratory results from patent US12295987B2, “Method of using a GIP/GLP1 co-agonist for diabetes” (Eli Lilly and Company, priority 2018, dated 2025).
Numbered stars: 1 amine (or outer) side, 2 acyl side, 3 side chain; on linkers, the order of the positions; unused ones are H or OH. Square brackets hold non-standard residues; d marks the D form. Side chains are listed from the residue outwards. Ends that are not written are not given here. * marks the point of attachment. C20 diacid = O=C(O)CCCCCCCCCCCCCCCCCCC(=O)*; C18 diacid = O=C(O)CCCCCCCCCCCCCCCCC(=O)*; γGlu = O=C(O)[C@H](CCC(=O)[*:2])N[*:1]; αMeF = C[C@](N)(Cc1ccccc1)C(=O)O; αMeL = CC(C)C[C@](C)(N)C(=O)O; αMeP = C[C@@]1(C(=O)O)CCCN1; cTA = not defined here; AEEA = NCCOCCOCC(=O)O; Aib = CC(C)(N)C(=O)O

Target: T1, human gastric inhibitory peptide receptor (hGIPR) (Homo sapiens, UniProt P48546)
T1 construct: expressed in transfected cells; host or cells: HEK293
T1 sequence (P48546 22-466): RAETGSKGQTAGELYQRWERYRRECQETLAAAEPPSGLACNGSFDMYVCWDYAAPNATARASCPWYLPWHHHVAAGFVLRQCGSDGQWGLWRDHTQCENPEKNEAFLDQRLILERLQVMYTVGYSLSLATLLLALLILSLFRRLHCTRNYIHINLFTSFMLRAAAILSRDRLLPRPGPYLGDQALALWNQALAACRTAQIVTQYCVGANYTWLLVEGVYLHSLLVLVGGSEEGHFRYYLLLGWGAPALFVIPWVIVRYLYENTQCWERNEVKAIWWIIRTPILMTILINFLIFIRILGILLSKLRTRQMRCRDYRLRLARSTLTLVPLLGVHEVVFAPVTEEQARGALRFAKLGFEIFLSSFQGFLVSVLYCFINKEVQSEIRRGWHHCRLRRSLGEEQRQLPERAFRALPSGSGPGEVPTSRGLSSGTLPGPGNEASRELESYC
Test: cAMP pharmacological functional assay in presence of 0.1% casein, hGIPR
Format: cell-based
Details: ratio of hGIPR to hGLP1R cAMP EC50 ratios

Substance | [hGIPR/hGLP1R] EC50 Ratio
Y-Aib-cTA-GT-αMeF-TSDYSI-αMeL-LDEK((2-[2-(2-Amino-ethoxy)-ethoxy]-acetyl)2-(γGlu)-CO—(CH2)18—CO2H)AQ-Aib-AFIEYLIEGGPSSGAPPPS-NH2 (Y[Aib][cTA]GT[αMeF]TSDYSI[αMeL]LDEK([AEEA-AEEA-γGlu-C20 diacid])AQ[Aib]AFIEYLIEGGPSSGAPPPS-NH2; reading uncertain; also: printed as Y-Aib-cTA-GT-αMeF-TSDYSI-αMeL-LDEK((2-[2-(2-Amino-ethoxy)-ethoxy]-acetyl)2-(γGlu)-CO—(CH2)18—CO2H)AQ-Aib-AFIEYLIEGGPSSGAPPPS-NH2) [Peptide 120] | 5.24
Y-Pro-EGTFTSDYSILLDKK((2-[2-(2-Amino-ethoxy)-ethoxy]-acetyl)2-(γGlu)-CO—(CH2)18—CO2H)AQ-Aib-AFIEYLIEGGPSSGAPPPS-NH2 (YPEGTFTSDYSILLDKK([AEEA-AEEA-γGlu-C20 diacid])AQ[Aib]AFIEYLIEGGPSSGAPPPS-NH2; N-terminus assumed; SMILES CC[C@H](C)[C@H](NC(=O)[C@H](CC(C)C)NC(=O)[C@H](Cc1ccc(O)cc1)NC(=O)[C@H](CCC(=O)O)NC(=O)[C@@H](NC(=O)[C@H](Cc1ccccc1)NC(=O)[C@H](C)NC(=O)C(C)(C)NC(=O)[C@H](CCC(N)=O)NC(=O)[C@H](C)NC(=O)[C@H](CCCCNC(=O)COCCOCCNC(=O)COCCOCCNC(=O)CC[C@H](NC(=O)CCCCCCCCCCCCCCCCCCC(=O)O)C(=O)O)NC(=O)[C@H](CCCCN)NC(=O)[C@H](CC(=O)O)NC(=O)[C@H](CC(C)C)NC(=O)[C@H](CC(C)C)NC(=O)[C@@H](NC(=O)[C@H](CO)NC(=O)[C@H](Cc1ccc(O)cc1)NC(=O)[C@H](CC(=O)O)NC(=O)[C@H](CO)NC(=O)[C@@H](NC(=O)[C@H](Cc1ccccc1)NC(=O)[C@@H](NC(=O)CNC(=O)[C@H](CCC(=O)O)NC(=O)[C@@H]1CCCN1C(=O)[C@@H](N)Cc1ccc(O)cc1)[C@@H](C)O)[C@@H](C)O)[C@@H](C)CC)[C@@H](C)CC)C(=O)N[C@@H](CCC(=O)O)C(=O)NCC(=O)NCC(=O)N1CCC[C@H]1C(=O)N[C@@H](CO)C(=O)N[C@@H](CO)C(=O)NCC(=O)N[C@@H](C)C(=O)N1CCC[C@H]1C(=O)N1CCC[C@H]1C(=O)N1CCC[C@H]1C(=O)N[C@@H](CO)C(N)=O) [Peptide 88] | 4.27
Y-αMePro-EGTFTSDYSILLDEK((2-[2-(2-Amino-ethoxy)-ethoxy]-acetyl)2-(γGlu)-CO—(CH2)16—CO2H)AQQAFIEYLIEGGPSSG-NH2 (Y[αMeP]EGTFTSDYSILLDEK([AEEA-AEEA-γGlu-C18 diacid])AQQAFIEYLIEGGPSSG-NH2; N-terminus assumed; SMILES CC[C@H](C)[C@H](NC(=O)[C@H](CC(C)C)NC(=O)[C@H](Cc1ccc(O)cc1)NC(=O)[C@H](CCC(=O)O)NC(=O)[C@@H](NC(=O)[C@H](Cc1ccccc1)NC(=O)[C@H](C)NC(=O)[C@H](CCC(N)=O)NC(=O)[C@H](CCC(N)=O)NC(=O)[C@H](C)NC(=O)[C@H](CCCCNC(=O)COCCOCCNC(=O)COCCOCCNC(=O)CC[C@H](NC(=O)CCCCCCCCCCCCCCCCC(=O)O)C(=O)O)NC(=O)[C@H](CCC(=O)O)NC(=O)[C@H](CC(=O)O)NC(=O)[C@H](CC(C)C)NC(=O)[C@H](CC(C)C)NC(=O)[C@@H](NC(=O)[C@H](CO)NC(=O)[C@H](Cc1ccc(O)cc1)NC(=O)[C@H](CC(=O)O)NC(=O)[C@H](CO)NC(=O)[C@@H](NC(=O)[C@H](Cc1ccccc1)NC(=O)[C@@H](NC(=O)CNC(=O)[C@H](CCC(=O)O)NC(=O)[C@]1(C)CCCN1C(=O)[C@@H](N)Cc1ccc(O)cc1)[C@@H](C)O)[C@@H](C)O)[C@@H](C)CC)[C@@H](C)CC)C(=O)N[C@@H](CCC(=O)O)C(=O)NCC(=O)NCC(=O)N1CCC[C@H]1C(=O)N[C@@H](CO)C(=O)N[C@@H](CO)C(=O)NCC(N)=O) [Peptide 197] | 4.52
